Assay results: the Immune Epitope Database (IEDB)
pIC50, pKd: −log10 of the molar value.

How the values were obtained:
[1] = target: HLA-A*01:01; assay: IEDB peptide-MHC binding, purified MHC/competitive/radioactivity; ≥ and ≤ were set here for values at or beyond the usual limits of such assays; conditions: source organism: Homo sapiens
[2] = target: HLA-A*24:02; assay: as above; conditions: source organism: Homo sapiens
[3] = target: HLA-A*01:01; assay: IEDB peptide-MHC binding, purified MHC/competitive/radioactivity; filed as Kd, often an IC50 or EC50 that approximates it; ≥ and ≤ were set here for values at or beyond the usual limits of such assays
[4] = target: HLA-A*03:01; assay: IEDB peptide-MHC binding, purified MHC/competitive/radioactivity; ≥ and ≤ were set here for values at or beyond the usual limits of such assays; conditions: source organism: Homo sapiens
[5] = target: HLA-A*11:01; assay: as above; conditions: source organism: Homo sapiens

Sequence	pIC50 [1]	pIC50 [4]	pIC50 [5]	other results
YLDDPDLKY	8.55	–	–	–
ATDFKFAMY	9.13	–	–	–
AYVHMVTHF	–	–	–	pIC50 [2]: 7.64
STDHIPILY	8.77	–	–	–
DAKIRIFDL	–	–	–	pKd ([3]; source organism: Homo sapiens): ≤ 4.30
KYPENFFLL	–	–	–	pIC50 [2]: 8.32
NRKLLDIA	–	–	–	pKd ([3]; source organism: Bos taurus): ≤ 4.30
SVLNLVIVK	–	6.89	8.16	–
YYEEQHPEL	–	–	–	pIC50 [2]: 7.00
ASFDKAKLK	–	7.38	7.82	–
DSDGSFFLY	9.22	–	–	–
KVVNPLFEK	–	7.07	8.09	–
RTQNVLGEK	–	6.81	7.51	–
